This note sets out measurements from patent publication US10450368.

A value given as a limit tells only on which side of the number the result lay.

Assay [1] deals with Jo-1 (UniProt P12081). The assay can be described thus: AtheNA, Ab 25 ug/ml.
The target of assay [2] is SSA. Put plainly: AtheNA, Ab 25 ug/ml.
Assay [3] concerns the target Histones. Put plainly: AtheNA, Ab 25 ug/ml.
Assay [4] concerns the target Sm (Smith antigen). Put plainly: AtheNA, Ab 25 ug/ml.
In assay [5] the target is RNP (ribonucleoprotein). The assay can be described thus: AtheNA, Ab 25 ug/ml.
Assay [6] has as its target SSB (UniProt P05455). Put plainly: AtheNA, Ab 25 ug/ml.
For assay [7], the target named is Centromere B (UniProt P07199). The assay can be described thus: AtheNA, Ab 25 ug/ml.
Assay [8] deals with Scl-70 (UniProt P11387). The assay can be described thus: AtheNA, Ab 25 ug/ml.
Assay [9] concerns the target Jo-1 (UniProt P12081). Put plainly: AtheNA, Ab 50 ug/ml.
Assay [10] addresses SSA. The assay can be described thus: AtheNA, Ab 50 ug/ml.
Assay [11] concerns the target Histones. Put plainly: AtheNA, Ab 50 ug/ml.
The target in assay [12] is Sm (Smith antigen). The assay can be described thus: AtheNA, Ab 50 ug/ml.
For assay [13], the target named is SSB (UniProt P05455). The assay can be described thus: AtheNA, Ab 50 ug/ml.
The next assay deals with CH505.w30.12D8gp120. The assay can be described thus: ELISA.
The target of assay [14] is CH505.TF mutant gp120 M20 (HIV-1). The assay can be described thus: ELISA.
Another assay concerns the target CH505w020.14D8gp120. Put plainly: ELISA. In general terms: ELISA stands for enzyme-linked immunosorbent assay.
The target in another assay is CH505.M19D8gp120. Put plainly: ELISA.
For assay [15], the target named is CH505.TF mutant gp120 M8 (HIV-1). Put plainly: ELISA.
A further assay deals with CH0505_CON D7gp120/293i. The assay can be described thus: ELISA.
Another assay concerns the target CH505w136.B18D8gp120. Put plainly: ELISA.
The target of a further assay is CH505.M10D8gp120. Put plainly: ELISA.
A further assay has as its target CH505.M11D8gp120/293F. Put plainly: ELISA.
The target of the next assay is CH505.M7D8gp120/293F. Put plainly: ELISA.
Another assay concerns the target CH505.M9D8gp120/293F. Put plainly: ELISA.
A further assay deals with CH505.M21D8gp120/293F. The assay can be described thus: ELISA.
The target in assay [16] is CH505.TF mutant gp120 M6 (HIV-1). The assay can be described thus: ELISA.
A further assay concerns the target CH505.M5D8gp120293F. Put plainly: ELISA.
For another assay, the target named is CH505w030.20D8gp120/293F. The assay can be described thus: ELISA.
Assay [17] has as its target HIV-1 CH505 transmitted/founder gp120 Env (HIV-1). The assay can be described thus: competition ELISA, blocking of CH106 binding to gp120.
Assay [18] deals with Jo-1 (UniProt P12081). The assay can be described thus: AtheNA, Ab 12.5 ug/ml.
For assay [19], the target named is SSA. Put plainly: AtheNA, Ab 12.5 ug/ml.
In assay [20] the target is Histones. Put plainly: AtheNA, Ab 12.5 ug/ml.
Assay [21] deals with Sm (Smith antigen). The assay can be described thus: AtheNA, Ab 12.5 ug/ml.
Assay [22] concerns the target RNP (ribonucleoprotein). Put plainly: AtheNA, Ab 12.5 ug/ml.
In assay [23] the target is SSB (UniProt P05455). The assay can be described thus: AtheNA, Ab 12.5 ug/ml.
The target in assay [24] is Centromere B (UniProt P07199). Put plainly: AtheNA, Ab 12.5 ug/ml.
For assay [25], the target named is Scl-70 (UniProt P11387). The assay can be described thus: AtheNA, Ab 12.5 ug/ml.
Assay [26] concerns the target HIV-1 CH505 transmitted/founder gp120 Env (HIV-1). Put plainly: competition ELISA, blocking of sCD4 binding to gp120.
Assay [27] addresses Jo-1 (UniProt P12081). Put plainly: AtheNA, Ab 6.25 ug/ml.
Assay [28] deals with SSA. The assay can be described thus: AtheNA, Ab 6.25 ug/ml.
Assay [29] has as its target Histones. The assay can be described thus: AtheNA, Ab 6.25 ug/ml.
The target of assay [30] is Sm (Smith antigen). The assay can be described thus: AtheNA, Ab 6.25 ug/ml.
Assay [31] has as its target RNP (ribonucleoprotein). The assay can be described thus: AtheNA, Ab 6.25 ug/ml.
In assay [32] the target is SSB (UniProt P05455). Put plainly: AtheNA, Ab 6.25 ug/ml.
Assay [33] deals with Centromere B (UniProt P07199). Put plainly: AtheNA, Ab 6.25 ug/ml.
The target of assay [34] is Scl-70 (UniProt P11387). Put plainly: AtheNA, Ab 6.25 ug/ml.
Assay [35] concerns the target Jo-1 (UniProt P12081). The assay can be described thus: AtheNA, Ab 50 ug/ml. The source holds these as a separate data set.
Assay [36] has as its target SSB (UniProt P05455). Put plainly: AtheNA, Ab 50 ug/ml. The source holds these as a separate data set.
Assay [37] deals with Jo-1 (UniProt P12081). The assay can be described thus: AtheNA, Ab 25 ug/ml. The source holds these as a separate data set.
Assay [38] deals with SSA. The assay can be described thus: AtheNA, Ab 25 ug/ml. The source holds these as a separate data set.
In assay [39] the target is Histones. The assay can be described thus: AtheNA, Ab 25 ug/ml. This is another data set of the same source.
Assay [40] deals with Sm (Smith antigen). Put plainly: AtheNA, Ab 25 ug/ml. This is another data set of the same source.
The target of assay [41] is RNP (ribonucleoprotein). The assay can be described thus: AtheNA, Ab 25 ug/ml. This is another data set of the same source.
Assay [42] addresses SSB (UniProt P05455). Put plainly: AtheNA, Ab 25 ug/ml. This is another data set of the same source.
The target in assay [43] is Centromere B (UniProt P07199). The assay can be described thus: AtheNA, Ab 25 ug/ml. This is another data set of the same source.
In assay [44] the target is Scl-70 (UniProt P11387). Put plainly: AtheNA, Ab 25 ug/ml. The source holds these as a separate data set.
The target of assay [45] is CH505 TF loop D mutant M9 Env (pseudovirus) (HIV-1). The assay can be described thus: cell-based or functional assay.
In assay [46] the target is CH505 TF loop D mutant M8 Env (pseudovirus) (HIV-1). The assay can be described thus: cell-based or functional assay.
Assay [47] has as its target CH505 TF loop D mutant M7 Env (pseudovirus) (HIV-1). Put plainly: cell-based or functional assay.
Assay [48] deals with CH505 TF loop D mutant M20 Env (pseudovirus) (HIV-1). The assay can be described thus: cell-based or functional assay.
In assay [49] the target is HIV-1 Env resurface core protein 3 (RSC3). The assay can be described thus: direct-binding ELISA (OD450), panel 'RSC3'.
Another assay has as its target CH505.TF gp120 delta371I. The assay can be described thus: direct-binding ELISA (OD450), panel 'CH505.TF gp120 delta371I'.
In the next assay the target is RSC3 delta371I. The assay can be described thus: ELISA.
Assay [50] deals with CH505.TF mutant gp120 M8 (HIV-1). Put plainly: direct-binding ELISA (OD450), panel 'CH505.TF gp120 M8'.

Jo-1, sequence (P12081 whole entry): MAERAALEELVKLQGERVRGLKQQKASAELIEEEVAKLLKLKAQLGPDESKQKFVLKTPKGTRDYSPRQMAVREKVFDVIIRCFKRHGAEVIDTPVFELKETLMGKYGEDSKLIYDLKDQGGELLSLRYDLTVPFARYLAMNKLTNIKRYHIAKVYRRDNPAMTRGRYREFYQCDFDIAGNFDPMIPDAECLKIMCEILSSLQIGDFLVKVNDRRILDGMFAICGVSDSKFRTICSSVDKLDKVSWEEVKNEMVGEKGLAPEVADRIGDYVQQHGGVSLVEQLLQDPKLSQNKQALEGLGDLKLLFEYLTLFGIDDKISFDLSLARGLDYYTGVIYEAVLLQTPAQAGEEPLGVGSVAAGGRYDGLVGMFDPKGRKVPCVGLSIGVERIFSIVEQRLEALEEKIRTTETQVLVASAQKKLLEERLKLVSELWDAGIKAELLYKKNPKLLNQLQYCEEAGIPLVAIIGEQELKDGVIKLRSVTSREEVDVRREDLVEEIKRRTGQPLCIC
Centromere B, sequence (P07199 whole entry): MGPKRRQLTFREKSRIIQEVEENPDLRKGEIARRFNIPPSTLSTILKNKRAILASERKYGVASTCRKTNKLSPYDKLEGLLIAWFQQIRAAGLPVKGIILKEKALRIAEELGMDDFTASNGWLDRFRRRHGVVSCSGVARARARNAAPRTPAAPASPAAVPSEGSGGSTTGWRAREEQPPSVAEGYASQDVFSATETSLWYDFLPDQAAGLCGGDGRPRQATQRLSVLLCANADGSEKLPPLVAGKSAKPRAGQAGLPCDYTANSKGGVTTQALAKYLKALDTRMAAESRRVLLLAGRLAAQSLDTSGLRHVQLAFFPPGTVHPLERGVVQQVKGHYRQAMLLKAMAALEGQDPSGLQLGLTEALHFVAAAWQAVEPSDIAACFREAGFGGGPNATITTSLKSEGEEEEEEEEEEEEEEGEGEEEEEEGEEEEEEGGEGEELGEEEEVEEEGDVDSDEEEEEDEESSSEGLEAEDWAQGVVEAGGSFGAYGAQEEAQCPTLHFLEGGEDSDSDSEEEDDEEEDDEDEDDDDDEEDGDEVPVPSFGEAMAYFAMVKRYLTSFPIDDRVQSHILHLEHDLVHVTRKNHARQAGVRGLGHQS
SSB, sequence (P05455 whole entry): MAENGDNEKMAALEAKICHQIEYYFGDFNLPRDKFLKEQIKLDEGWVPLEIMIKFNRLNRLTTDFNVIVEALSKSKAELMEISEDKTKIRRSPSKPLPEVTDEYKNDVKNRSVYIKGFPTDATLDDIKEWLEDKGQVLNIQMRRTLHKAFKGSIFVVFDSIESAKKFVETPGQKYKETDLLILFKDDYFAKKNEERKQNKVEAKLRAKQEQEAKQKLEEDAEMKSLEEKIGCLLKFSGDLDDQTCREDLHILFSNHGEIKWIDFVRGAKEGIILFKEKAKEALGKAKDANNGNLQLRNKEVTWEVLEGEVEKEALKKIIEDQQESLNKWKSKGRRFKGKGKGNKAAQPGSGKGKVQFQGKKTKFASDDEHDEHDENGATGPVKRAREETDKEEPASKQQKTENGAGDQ
Scl-70, sequence (P11387 whole entry): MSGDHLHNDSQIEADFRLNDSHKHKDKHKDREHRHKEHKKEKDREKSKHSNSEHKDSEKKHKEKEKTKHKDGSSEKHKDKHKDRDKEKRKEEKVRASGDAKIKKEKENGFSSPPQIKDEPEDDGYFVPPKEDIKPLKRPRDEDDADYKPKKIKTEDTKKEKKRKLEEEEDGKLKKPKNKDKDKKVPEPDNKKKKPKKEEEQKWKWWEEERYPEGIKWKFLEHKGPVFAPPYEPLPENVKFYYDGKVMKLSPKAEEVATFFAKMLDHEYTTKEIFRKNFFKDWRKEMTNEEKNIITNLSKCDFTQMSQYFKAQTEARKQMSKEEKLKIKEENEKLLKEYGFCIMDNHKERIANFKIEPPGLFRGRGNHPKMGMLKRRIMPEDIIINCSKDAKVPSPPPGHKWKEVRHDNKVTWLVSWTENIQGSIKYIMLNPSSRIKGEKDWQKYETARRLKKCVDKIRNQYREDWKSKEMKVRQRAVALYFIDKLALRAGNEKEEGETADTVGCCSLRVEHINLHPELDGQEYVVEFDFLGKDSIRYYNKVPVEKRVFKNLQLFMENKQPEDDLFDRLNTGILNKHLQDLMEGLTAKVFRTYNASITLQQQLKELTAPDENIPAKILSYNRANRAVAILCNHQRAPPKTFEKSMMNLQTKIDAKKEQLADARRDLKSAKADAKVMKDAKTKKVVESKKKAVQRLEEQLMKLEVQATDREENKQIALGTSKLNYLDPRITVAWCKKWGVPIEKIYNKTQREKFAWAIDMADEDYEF

As to CH235 IA1 (antibody), the AtheNA signal (relative luminescence units) was 171 in the assay with Jo-1 [1]; 150 in the assay with SSA [2]; 99 in the assay with Histones [3]; 110 with Sm (Smith antigen) [4]; 67 with RNP (ribonucleoprotein) [5]; 197 with SSB [6]. Moreover, the AtheNA signal (relative luminescence units) came to 80 with Centromere B [7]; 52 with Scl-70 [8]; 176 with Jo-1 [9]; 149 with SSA [10]; 100 with Histones [11]; 104 in the assay with Sm (Smith antigen) [12]. For the same substance, the AtheNA signal (relative luminescence units) is 217 with SSB [13]; 152 with Jo-1 [18]; 151 with SSA [19]; 100 with Histones [20]; 77 with Sm (Smith antigen) [21]; 56 with RNP (ribonucleoprotein) [22]. Further, the AtheNA signal (relative luminescence units) amounted to 167 in the assay with SSB [23]; 81 with Centromere B [24]; 40 in the assay with Scl-70 [25]; 129 with Jo-1 [27]; 175 in the assay with SSA [28]; 118 with Histones [29]. Also, the AtheNA signal (relative luminescence units) in the assay with Sm (Smith antigen) [30] is 77; with RNP (ribonucleoprotein) [31], 46; with SSB [32], 117; with Centromere B [33] it was 87; with Scl-70 [34] it was 31. In addition, the LogAUC with CH505.w30.12D8gp120 worked out at 2.4; in [14] it was 0; in the assay with CH505w020.14D8gp120, 6.52; with CH505.M19D8gp120 it was 2.78; in [15] it was 0; with CH0505_CON D7gp120/293i, 6.89. Moreover, the LogAUC in the assay with CH505w136.B18D8gp120 is 2.36; with CH505.M10D8gp120, 7.08; in the assay with CH505.M11D8gp120/293F it was 2.85; with CH505.M7D8gp120/293F it was 0; with CH505.M9D8gp120/293F, 0; with CH505.M21D8gp120/293F, 0. The LogAUC is 6.1 in [16], 9.18 in the assay with CH505.M5D8gp120293F and 4.82 with CH505w030.20D8gp120/293F. Besides, the IC50 (usually the concentration that gives 50% inhibition) was 82.4 µg/mL in [17] and > 100 µg/mL in assay [26].
Take 4E10 (antibody): the AtheNA signal (relative luminescence units) in the assay with Jo-1 [1] amounted to 206; with SSA [2] it was 81; with Histones [3], 24; in the assay with Sm (Smith antigen) [4], 46; in the assay with RNP (ribonucleoprotein) [5] it was 20; with SSB [6], 189. Moreover, the AtheNA signal (relative luminescence units) was found to be 9 with Centromere B [7]; 4 with Scl-70 [8]; 227 with Jo-1 [9]; 207 with SSB [13]; 190 in the assay with Jo-1 [35]; 263 with SSB [36]. The AtheNA signal (relative luminescence units) with Jo-1 [18] turned out to be 131; in the assay with SSA [19], 21; with Histones [20] it was 7; with Sm (Smith antigen) [21] it was 3; with RNP (ribonucleoprotein) [22] it was 3; with SSB [23], 199. Further, the AtheNA signal (relative luminescence units) was determined as 1 with Centromere B [24]; 0 with Scl-70 [25]; 113 with Jo-1 [27]; 17 in the assay with SSA [28]; 6 with Histones [29]; 3 with Sm (Smith antigen) [30]. The AtheNA signal (relative luminescence units) in the assay with RNP (ribonucleoprotein) [31] was found to be 3; in the assay with SSB [32], 178; with Centromere B [33], 2; with Scl-70 [34], 1; with Jo-1 [37] it was 160; with SSA [38] it was 33. For the same substance, the AtheNA signal (relative luminescence units) with Histones [39] is 10; with Sm (Smith antigen) [40] it was 2; with RNP (ribonucleoprotein) [41], 3; with SSB [42], 227; with Centromere B [43], 3; with Scl-70 [44], 1.
For CH235.9 N30T (antibody), the neutralization IC50, TZM-bl pseudovirus assay in [45] is > 44 µg/mL; in [46], 24.3 µg/mL; in assay [47], > 44 µg/mL; in assay [48], > 44 µg/mL. The fold increase of neutralization IC50 against CH235.9 in assay [46] was 37 fold.
With 2G12 (antibody), the EC50 (read off the curve) (in general, the midpoint of the concentration-response curve) was 0.01 µg/mL in assay [49], 0.2 µg/mL with CH505.TF gp120 delta371I, 0.01 µg/mL with RSC3 delta371I and 0.2 µg/mL in assay [50].
